The supplement of paper PMC10567573

B1: FAM107A (parent)
chain: HRRGLGVDSKPELQRVLEHRRRNQ
B2: FCHO1 (parent)
chain: FTSSPSPFSSSSPENVEDSGLDSP

Variants of: B1
Experiment: protein stability index of a GFP-peptide fusion (GPS, HEK-293T) (PSI 1-6); higher = more stable
Settings: c terminus: a fixed tail appended
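Also: lentivirally expressed fusions sorted by FACS into six bins by GFP to DsRed ratio, PSI derived from sequencing read proportions per bin multiplied by bin number.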

Protein stability index, by site and new letter:
Q24: Y 2.79, W 2.73

Variants of: B2
Experiment: as above
Settings: c terminus: a fixed tail appended

Protein stability index: each site, then its substitutions
D18: E 1.92, G 1.83, N 2.42, F 2.26, C 2.17, P 2.01, M 1.99, L 2.05, A 1.62, I 2.01, H 2.7, K 1.91
E14: M 2.05, F 1.64, P 1.94, A 1.96, G 1.92, H 1.95, D 2.4, V 2.15, K 2.1, N 2.14, L 2.22, Y 1.72, W 2.78, C 1.69, S 2.17, I 1.9, Q 2.31, R 1.61, T 1.84
S12: Q 2.26, C 2.46, D 2.53, Y 1.75, K 1.56, M 1.99, H 3.01, R 1.56, E 1.7, F 2.65, G 2.36, P 2.25, A 1.74, N 2.37, T 2.01, L 2.27, W 1.98, V 2.56, I 2.12
S3: L 3.8, I 3.05, K 3.48, H 2.32, W 2.61, F 2.6, T 1.87, G 1.38, P 2.52, N 2.71, A 2.26, D 2.7, V 2.05, Y 2.85, M 2.38, R 3.59, C 2.01, E 2.79, Q 2.42
S6: A 2.37, T 2.19, G 2.02, K 2.67, E 2.85, W 2.44, C 2.18, Q 2.08, R 2.21, Y 2.19, H 2.23, I 2.22, M 1.83, D 3.29, V 1.99, F 1.79, L 1.86, N 1.98
P13: Q 2.39, E 2.44, G 1.93, H 2.29, R 1.85, C 1.53, Y 2.04, F 2.49, K 2.14, V 2.28, S 2.13, T 1.77, I 2.05, A 1.77, D 2.1, M 1.58, W 1.83, L 2.21, N 1.66
T2: Y 4.84, A 2.26, L 3.48, R 5.01, V 2.93, F 4.58, W 3.64, K 5.53, E 5.36, H 2.02, Q 1.58, M 3.48, P 2.65, I 2.14, D 4.91, C 2.02, G 2.71, N 3.96, S 2.86
F1: P 5.41, E 5.62, M 5.34, Q 5.16, S 5.49, I 5.67, V 5.51, Y 1.88, L 5.78, G 5.46, W 5.16, R 5.69, T 5.38, C 5.43, H 4.74, K 5.56, A 5.3, D 5.61, N 5.29
P7: V 2.24, G 2.89, M 2.1, K 2.28, F 1.93, S 2.25, E 2.79, Y 2.49, I 1.74, N 1.96, Q 1.86, R 2.09, D 3.19, T 2.38, H 2.12, L 1.91, A 2.25, C 1.56
S4: T 1.93, F 2.9, L 2.31, N 2.06, R 1.42, H 1.91, K 2.13, Y 1.95, G 2, W 3.58, E 3.14, Q 2.14, C 2.35, P 3.53, V 1.8, D 2.03, I 2.19, M 1.73, A 1.71
E17: S 2.53, C 1.68, M 2.32, K 1.78, T 2.26, R 1.86, D 1.84, Q 1.85, P 1.8, L 1.88, I 1.67, W 1.65, G 1.96, V 1.3, A 1.5, Y 2.23, H 1.98, N 2.1, F 2.21
S10: G 2.02, T 2.15, Q 1.92, R 2.56, W 2.7, H 2, I 2.7, D 1.93, P 2.3, N 2.3, Y 2.07, V 2.06, F 2.09, A 2.53, E 2.05, K 1.88, C 2.14, M 1.94, L 1.71
V16: G 2.75, D 2.39, I 2.25, H 2.27, S 2.15, Y 2.03, L 1.7, K 1.9, M 1.68, N 1.86, T 2.52, F 1.75, W 2.16, P 1.6, Q 1.91, A 2.47, E 1.81, R 2.08, C 2.44
S11: L 1.63, A 2.05, V 1.77, N 1.55, D 2.75, C 2.65, W 2.39, H 1.83, R 2.01, K 1.86, G 1.33, P 1.86, T 1.67, F 1.62, Y 2.25, M 1.76, Q 2.06, E 2.18, I 2.23
N15: G 1.64, W 2.39, H 1.66, L 2.01, R 1.71, K 1.43, C 2.24, Y 1.6, P 2.95, M 2.57, A 2.13, I 2.05, D 2.25, T 2.04, E 1.82, Q 1.81, V 2.46, F 1.73, S 2.33
P5: D 2.43, G 2.06, V 2.17, H 2.23, I 1.81, W 1.87, Q 2.16, N 2.09, C 1.96, A 1.88, K 2.31, F 2.32, L 1.91, R 2.08, S 2.67, M 2.02, Y 1.9, T 1.69, E 2.04
F8: D 5.5, N 4.9, A 5.11, E 5.2, I 4.48, P 4.95, G 4.72, C 3.77, Y 2.04, S 5.08, T 5.39, L 3.74, R 4.29, K 5.34, V 4.45, Q 4.95, M 4.53, H 5.05
S9: P 3.79, E 2.83, N 2.08, A 2.09, L 2.17, W 2.71, M 2.02, R 1.76, F 2.34, K 1.89, G 2.2, V 1.73, Y 2.45, I 2.91, C 2.22, H 1.84, D 2.67, Q 2.06, T 2.29
